These results are taken from the DeepSol protein solubility set.

The nature of this data set: soluble on expression in E. coli; label from the status in PepcDB or PDB records.
With “GPHMGGSMFSWLKKGGARGQRPEAIRTVTSSLKELYRTKLLPLEEHYRFGSFHSPALEDADFDGKPMVLVAGQYSTGKTSFIQYLLEQEVPGSRVGPEPTTDCFVAVMHGETEGTVPGNALVVDPEKPFRKLNPFGNTFLNRFMCAQLPNQVLESISIIDTPGILSGAKQRVSRGYDFPAVLRWFAERVDLIILLFDAHKLEISDEFSEAIGALRGHEDKIRVVLNKADMVETQQLMRVYGALMWALGKVVGTPEVLRVYIGSFWSQPLLVPDNRRLFELEEQDLFRDIQGLPRHAALRKLNDLVKRARLVRVHAYIISYLKKEMPTVFGKENKKKQLILKLPVIFAKIQLEHHISPGDFPDCQKMQELLMAHDFTKFHSLKPKLLEALDDMLAQDIAKLMPLLRQEELESVEAGVAGGAFEGTRMGPFVERGPDEAIEDGEEGSEDDAEWVVTKDKSKYDEIFYNLAPADGKLSGSKAKTWMVGTKLPNSVLGRIWKLSDVDRDGMLDDEEFALASHLIEAKLEGHGLPTNLPRRLVPPSKRRQKGSAE”, the “soluble on expression in E. coli” value was “soluble”.

Turning to “MSLNKKVVIGMSGGVDSSVAAYLLKEQGYDVIGVTMKLTPDDAFYTEQEGGCCSLSAVEDARRVAYRIGIPFYVVNFTDIFKEKVIDYFTEEYLNGKTPNPCIACNKYIKFDALLKKAESLGADYIATGHYCRIVEENGRYVIRKSEDEKKDQTYVMYNMTQDQLKHTLMPCGDYKKDRIREIAREIGLNVFDKKDSEEICFIPDNDHGGFIKRECPKAVKTGNFVDKEGKVLGKHKGIIYYTIGQRKGLGIATGKRVFVTNIDAMKNQVVIGEEEEIFENELISFKNNFIPFDKLTEPMEVDAKIRYNAKASKATIYPVDDENVKVKFEKPQRAITKGQSVVFYDGDLLVGGGIIKEGHHHHHH”, the “soluble on expression in E. coli” value is given as “not soluble”.

On to “MEIQFLGTGAGQPAKARNVSSLVLKLLDELNEIWMFDCGEGTQRQILETTIKPRKIRKIFITHLHGDHVFGLPGFLSSRAFQANDEQTDVDIYGPVGIKHLVMASIRTSGAHLPYHIHFHEFDAKHLGKILETDKFMVYAEKLDHTIFCVGYRVVQKDLEGTLDAEKLKAAGLPFGPLFGRVKNGQDVVLEDGTTIIAKDYISAPKKGKVITILGDTRKTDASIRLALGADVLVHESTYSKGDENLARRHGHSTNTEAARVAKAASVKKLLLNHISARFLSHDISRMRDDAQEIFTDVHIVRDLEEVKLLEHHHHHH”, for which the “soluble on expression in E. coli” value is reported as “not soluble”.

As to “GHSMHHHHHHLGNKLSISDLKDIKNKKVLVRVDFNVPIENGIIKDTNRITATLPTINHLKKEGASKIILISHCGRPDGLRNEKYTLKPVAETLKGLLGEEVLFLNDCVGKEVEDKINAAKENSVILLENLRFHIEEEGKGVDANGNKVKANKEDVEKFQNDLTKLADVFINDAFGTAHRAHSSMVGVKLNVKASGFLMKKELEYFSKALENPQRPLLAILGGAKVSDKIQLIKNLLDKVDRMIIGGGMAYTFKKVLNNMKIGTSLFDEAGSKIVGEIMEKAKAKNVQIFLPVDFKIADNFDNNANTKFVTDEEGIPDNWMGLDAGPKSIENYKDVILTSKTVIWNGPQGVFEMPNFAKGSIECLNLVVEVTKKGAITIVGGGDTASLVEQQNKKNEISHVSTGGGASLELLEGKELPGVLALSNK”, the “soluble on expression in E. coli” value is “soluble”.

Regarding “MSQNLFNVEDYRKLAQKRLPKMVYDYLEGGAEDEYGVKHNRDVFQQWRFKPKRLVDVSRRSLQAEVLGKRQSMPLLIGPTALNGALWPKGDLALARAATKAGIPFVLSTASNMSIEDLARQCDGDLWFQLYVIHREIAQGMVLKALHTGYTTLVLTTDVAVNGYRERDLHNRFKIPPFLTLKNFEGIDLGKMDKANLEMQAALMSRQMDASFNWEALRWLRDLWPHKLLVKGLLSAEDADRCIAEGADGVILSNHGGRQLDCAISPMEVLAQSVAKTGKPVLIDSGFRRGSDIVKALALGAEAVLLGRATLYGLAARGETGVDEVLTLLKADIDRTLAQIGCPDITSLSPDYLQNEGVTNTAPVDHLIGKGTHAHHHHHH”, the “soluble on expression in E. coli” value is “soluble”.

As for “SNAMKQLTILGSTGSIGNSTLSVVRANPELFKVTALVAGRNVREMAQQCLEFSPRYAAMSDEHSAKSLRLLLAEQGSDTEVYSGETAACELAALDDVDQVMAAIVGIAGLPSTLAAIRAGKQVLLANKESLITCGKLFMDEVKRSRAQLLPIDSEHNAIFQSLPERIQRQLGYSSLNENGVSRIILTGSGGPFRETPLSQFSDVTPDQACAHPNWSMGRKISVDSATMMNKGLEYIEARWLFNASAEQIEVVLHPQSVIHSMVRYHDGSILAQMGTPDMRTPIAHAMAYPMRVSSGVAPLDFCKVGALTFTTPDYQRYPCLKLAIDACNAGQAATTALNAANEISVMAFLDSKIRFTDIEVINRTVVEGLLLSEPTSVEEVLVIDRKARDVAAQVIAKLNN”, the “soluble on expression in E. coli” value is listed as “soluble”.

As for “MGSDKIHHHHHHMIILVGGEKGGSGKSCLAQNIAVFLTVECGASVIMVDCDPQRTTSDWIQARNNNGTLASINCVQLYGKIRNDLLSLEQHYDYVIVDCGGQDNLALRATMSVASHVLMPLRPKRRDLKTVSHMDDIVATCMMINPKMRASFVITQCPSLPNQANRIFEAKEVCKTYDINVLDAITYSRNIYDDSEESGLSVMETQPKGKAAEEIRSIACEMLQASSATEIRNRLAEKQMDKLRGNYGSGRSQEKLYAV”, the “soluble on expression in E. coli” value is “not soluble”.

For “MSLKTYALVMAGGRGERLWPLSREDRPKPFLPLFEGKTLLEATLERLAPLVPPERTLLAVRRDQEAVARPYADGIRLLLEPLGRDTAGAVLLGVAEALKEGAERLLVLPADHYVGDDEAYREALATMLEAAEEGFVVALGLRPTRPETEYGYIRLGPREGAWYRGEGFVEKPSYAEALEYIRKGYVWNGGVFAFAPATMAELFRRHLPSHHEALERLLAGASLEEVYAGLPKISIDYGVMEKAERVRVVLGRFPWDDVGNWRALERVFSQDPHENVVLGEGRHVALDTFGCVVYADRGVVATLGVSGLVVAKVGDEVLVVPKDWAREVREVVKRLEAQEEGHHHHHH”, the “soluble on expression in E. coli” value was “soluble”.

For “MSQLLQDYLNWENYILRRVDFPTSYVVEGEVVRIEAMPRLYISGMGGSGVVADLIRDFSLTWNWEVEVIAVKDYFLKARDGLLIAVSYSGNTIETLYTVEYAKRRRIPAVAITTGGRLAQMGVPTVIVPKASAPRAALPQLLTAALHVVAKVYGIDVKIPEGLEPPNEALIHKLVEEFQKRPTIIAAESMRGVAYRVKNEFNENAKIEPSVEILPEAHHNWIEGSERAVVALTSPHIPKEHQERVKATVEIVGGSIYAVEMHPKGVLSFLRDVGIASVKLAEIRGVNPLATPRIDALKRRLQ”, the “soluble on expression in E. coli” value is reported as “soluble”.

Take “GGDVLERQMALMAQAAQRVQDMKRFVWDSLDSMPEPVVVTDLAGTVLIANHAAKRYCARLSAPAPEGRPLRVAFGELSFVKTVDGNAEQDVEIRSHWPAALDPTRDYENDVMERGIEVRDLSGLDHLLRYAPCTNAQGNVTGWIASLVDVTALHAAERQREEALHLLSHDM”: the “soluble on expression in E. coli” value is on record as “soluble”.

As to “MNTQSLMSSTHTIAASDPHIQVMGRTHINDDASLTFGYPGVSLSTIVAGSRLTAEMQSSNGNSWIDVIIDNHPPTSIKLDAQQQTVELFHFPNSGEHRVEIIHRSENWHGQVTLKQLTLTGTQFLPAPVLPQRKILVLGDSVTCGEAIDRVAGEDKNTRWWNARESYGMLTAKALDAQVQLVCWGGRGLIRSWNGKTDDANLPDFYQFTLGDTGQAPQWDHHRYQPDLIISAIGTNDFSPGIPDRATYINTYTRFVRTLLDNHPQATIVLTEGAILNGDKKAALVSYIGETRQQLHSNRVFYASSSHHPGDNSDAHPTKDQHAAMARELTPQLRQIMDWLEHHHHHH”, the “soluble on expression in E. coli” value is recorded as “soluble”.

For the sequence “MADGLRVALVAGEASGDILGSGLMQALRARHPDIEFIGVGGPRMEAEGLSSYFPMERLSVMGLVEVLGRLPELLRRRKRLIRTLIEARPDVMIGIDAPDFTLGVEHKLRQAGLRTVHYVSPSVWAWRQKRVLKIREACDLMLALFPFEARFYEEHGVPVRFVGHPLANTIPLQADRAAARARLGLPADGQVLALMPGSRGGEVGKLGALFLDTAQRLLVERPGLRFVLPCASAARREQIEQMLQGREPLPLTLLDGASHEALAACDAVLIASGTATLEALLYKRPMVVAYRVAGLTYRILKRLVKSPYISLPNLLAGRLLVPELIQDAATPQALAATLSPLLDDGSQQVEFFDAIHRALRQDASAQAA”, the “soluble on expression in E. coli” value is “not soluble”.

With “MSLKILVIGPSWVGDMVMSQSLYQRLKQQHPDAQIDVLAPAWCKPILERMPEVNQAIEMTIGHGAFNLLGRRAIGCELRDNRYTHAIVLPNSAKSALIPWFANIPKRTGWKGEFRYGLLNDLRPDKRVFQYMVERYVALAHPKATMLADVSLEHCPRPKLVIDAIVQQAARQRLSLVSSRPVIGLCPGAEFGPAKRWPDHYYAEVARYAIEQGFQVWLFGSAKDHSVTTQIQQALSEEQREYCANLAGETSLIEAVDLLAACHTVVSNDSGLMHVSAAVGCNIVAIYGSSSPKYTPPLTDKLAVVHTEIECRPCFKRVCPLEHLNCLNQLKPAQVIKALDKFIGKDSEGHHHHHH”, the “soluble on expression in E. coli” value is “soluble”.

Consider “MTLTVAAPCVQTVTEPSKMEMQAESTSHITIRFTEMVGDAQKPTYGSISSAGADLYSAEDVVVPANGKLCVSTGLQIELPIGYYGRVAPRSGLAAKHFIDVGAGVIDSDYRGEVKVLLFNFNTTAFEVKTGDRIAKLICEQIGNGTYEEVKSLPSTNRGAGGFGSTGESTMNSETANPATNLERITVRFTQLNENAQTPTYGSEEAAGADLYSAEDITVPAHGKCCVSTGIQMELPFGYYGRVAPRSGLAAKHFIDVGAGVIDSDYRGEVKVLLFNFTDNAFEVKKGDRIAQLICEKIGHCVYEAASELENTDRGAGGFGSTGQNTMEAEPALKKSKTEQIKTSATSVTIQITKSNDNAQMPTYGSAEAAGADLYSAEDVTVPARGKLCVSTGIQMALPIGYYGRVAPRSGLAAKHFIDVGAGVIDSDYRGEVKVLLFNFGENDFEVKKGDRIAQLVCEQIALCTYSKVESLEVTERGAGGFGSTGQYITL”, for which the “soluble on expression in E. coli” value is recorded as “not soluble”.

As to “MYQVIRMYGAMEPWWFLDDWKEDITKVLEFDNYHEALQCYQKEWAKLRRRYSDFNSHGDIMTAFWNKQDQHWCEECGDYVQRYHSLALLTDWQETPSSWFRPTFTKQNDTPFRSKCFIKQKNEQGQNLEHHHHHH”, the “soluble on expression in E. coli” value is “not soluble”.

Turning to “MSELFKKLMDQIEMPLEMKNSRVFSSADIVEVKVYPESRIWDFRFSFETILPIDFYQELRSRLVTSFETADIKAVFDIEVENAEFSNELLQAYYQEAFKQPTCNSASFKSSFSHLTVSYTDGKVLISAPQFVNNDHFRKNHLPNLEKQFEAFGF”, the “soluble on expression in E. coli” value is on record as “not soluble”.

With “MGSDKIHHHHHHMSLKFDFSNLFEPNISGGLTDEDVKSVEEKVTSAVRNFVENTPDFAKLDRSWIDSVKSLEDWIINFDTVVVLGIGGSGLGNLALHYSLRPLNWNEMTREERNGYARVFVVDNVDPDLMSSVLDRIDPKTTLFNVISKSGSTAEVMATYSIARGILEAYGLDPREHMLITTDPEKGFLRKLVKEEGFRSLEVPPGVGGRFSVLTPVGLLSAMAEGIDIDELHEGAKDAFEKSMKENILENPAAMIALTHYLYLNKGKSISVMMAYSNRMIYLVDWYRQLWAESLGKRYNLKGEEVFTGQTPVKALGATDQHSQIQLYNEGPNDKVITFLRVENFDREIVIPETGRAELSYLARKKLSELLLAEQTGTEEALRENNRPNMRVTFDGLTPYNVGQFFAYYEAATAFMGYLLEINPFDQPGVELGKKITFALMGREGYTYEIKERSKKVIIE”, the “soluble on expression in E. coli” value was “soluble”.

For “DYKYVLKGHEDIRQDSLVMQLFGLVNTLLKNDSECFKRHLDIQQYPAIPLSPKSGLLGWVPNSDTFHVLIREHRDAKKIPLNIEHWVMLQMAPDYENLTLLQKIEVFTYALDNTKGQDLYKILWLKSRSSETWLERRTTYTRSLAVMSMTGYILGLGDRHPSNLMLDRITGKVIHIDFGDCFEAAILREKYPEKVPFRLTRMLTYAMEVSGIEGSFRITCENVMRVLRDNKESLMAILEAFALDPLIHWGFD”, the “soluble on expression in E. coli” value is “not soluble”.
